Assay results taken from article PMC11417369, “DNA sequence and chromatin differentiate sequence-specific transcription factor binding in the human malaria parasite Plasmodium falciparum”.

T1: HDP1 homeodomain-like (Plasmodium falciparum, UniProt Q8IKH4 2990-3078)
T1 sequence: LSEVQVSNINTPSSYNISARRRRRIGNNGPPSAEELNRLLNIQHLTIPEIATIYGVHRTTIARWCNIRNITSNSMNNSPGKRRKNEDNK

T2: SIP2 D1 (Plasmodium falciparum, UniProt C6KSN9 177-235)
T2 sequence: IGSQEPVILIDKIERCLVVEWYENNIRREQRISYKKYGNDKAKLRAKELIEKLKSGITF

B1: GTGCAC_site10017 (dsDNA)
DNA 1: ATATATACTATAATAGTGCATTAAAAAAGTAAAAAT
DNA 2: ATTTTTACTTTTTTAATGCACTATTATAGTATATAT
B2: GTGCAC_site10284 (dsDNA)
DNA 1: TTCTCCTAATAGTTAGTGCACTACATAACTAAGAAA
DNA 2: TTTCTTAGTTATGTAGTGCACTAACTATTAGGAGAA
B3: GTGCAC_site9574 (dsDNA)
DNA 1: ATCATATTTATGTTGGTGCATTATACATAAAGTTTA
DNA 2: TAAACTTTATGTATAATGCACCAACATAAATATGAT
B4: GTGCAC_site10033 (dsDNA)
DNA 1: TTATAAAATTACTTGGTGCATTAGAATATTTCAATA
DNA 2: TATTGAAATATTCTAATGCACCAAGTAATTTTATAA
B5: GTGCAC_negctrl_site443 (dsDNA)
DNA 1: ATATAATTTGTTATACTAACTTTTTAATTATTGATA
DNA 2: TATCAATAATTAAAAAGTTAGTATAACAAATTATAT
B6: GTGCAC_negctrl_site23 (dsDNA)
DNA 1: TCCTATATATAAATATTAATATATATGTATTGGTAT
DNA 2: ATACCAATACATATATATTAATATTTATATATAGGA
B7: GTGCAC_site9426 (dsDNA)
DNA 1: ACGTGTATTTATTTAGTGCACTTTATATTTTTTCTT
DNA 2: AAGAAAAAATATAAAGTGCACTAAATAAATACACGT
B8: GTGCAC_negctrl_site204 (dsDNA)
DNA 1: TAATATGTTTATGGTAACATACAAAAATGTATATAT
DNA 2: ATATATACATTTTTGTATGTTACCATAAACATATTA
B9: GTGCAC_negctrl_site522 (dsDNA)
DNA 1: TTTTTTACGCATAACTTAATATGAGAATCCCTTTCT
DNA 2: AGAAAGGGATTCTCATATTAAGTTATGCGTAAAAAA
B10: GTGCAC_site10095 (dsDNA)
DNA 1: CTATATATAACCCATGTGCACTTTTTATGTACAATA
DNA 2: TATTGTACATAAAAAGTGCACATGGGTTATATATAG
B11: GTGCAC_site9474 (dsDNA)
DNA 1: GCCCCCAAATTATGTGTGCACTTTATATTCCTGAGA
DNA 2: TCTCAGGAATATAAAGTGCACACATAATTTGGGGGC
B12: GTGCAC_negctrl_site61 (dsDNA)
DNA 1: TGTTTTTTGTTCTTTACAAAAAAAAAAAAAAAAAAA
DNA 2: TTTTTTTTTTTTTTTTTTTGTAAAGAACAAAAAACA
B13: GTGCAC_site9569 (dsDNA)
DNA 1: TATTTGTATATATGTGTGCACGTATAATCCATTAAA
DNA 2: TTTAATGGATTATACGTGCACACATATATACAAATA
B14: GTGCAC_negctrl_site163 (dsDNA)
DNA 1: ATTTTTTTATAAAATTTTTATATATTATATAAATAT
DNA 2: ATATTTATATAATATATAAAAATTTTATAAAAAAAT
B15: GTGCAC_negctrl_site329 (dsDNA)
DNA 1: TTTTTTTCTTTTTCAAAAAAAAAAAAAAAAAAAATA
DNA 2: TATTTTTTTTTTTTTTTTTTTTGAAAAAGAAAAAAA
B16: GTGCAC_negctrl_site554 (dsDNA)
DNA 1: AAAAAAAAAAAATATTGTAGAATATGATGACTTTGT
DNA 2: ACAAAGTCATCATATTCTACAATATTTTTTTTTTTT
B17: GTGCAC_negctrl_site610 (dsDNA)
DNA 1: AATATATGGTTTCATGATATAAAATTCAATTTAATG
DNA 2: CATTAAATTGAATTTTATATCATGAAACCATATATT
B18: GTGCAC_negctrl_site520 (dsDNA)
DNA 1: AAAAAAAAATAAATAAATATATATAATATTTATGTT
DNA 2: AACATAAATATTATATATATTTATTTATTTTTTTTT

molecular target: AP2-I D3 (Plasmodium falciparum, UniProt Q8IJW6 910-1027); assay: gcPBM; about 25 ug protein; PBS, 1% milk, 0.2 mg/ml BSA, salmon testes DNA, 0.03% Triton X-100; conditions: tags: N-terminal GST (pGEX-4T-1), kept; label: surface-attached array probe

Point of comparison: B2, binding signal 12.4 ln median PBM intensity, better of two orientations. Against it:
- B1 — lower, 12 ln median PBM intensity, better of two orientations
- B3 — lower, 12.1 ln median PBM intensity, better of two orientations
- B4 — lower, 12.1 ln median PBM intensity, better of two orientations

molecular target: T1, HDP1 homeodomain-like; assay: as above; conditions: tags: N-terminal GST (pGEX-4T-1), kept; chain copies: 2; label: surface-attached array probe

Point of comparison: B4, binding signal 11.1 ln median PBM intensity, better of two orientations. Against it:
- B1 — lower, 9.53 ln median PBM intensity, better of two orientations
- B5 — lower, 6.13 ln median PBM intensity, better of two orientations
- B6 — lower, 6.35 ln median PBM intensity, better of two orientations
- B7 — higher, 11.3 ln median PBM intensity, better of two orientations
- B8 — lower, 6.05 ln median PBM intensity, better of two orientations
- B9 — lower, 6.33 ln median PBM intensity, better of two orientations
- B10 — lower, 10.1 ln median PBM intensity, better of two orientations
- B11 — lower, 9.62 ln median PBM intensity, better of two orientations
- B12 — lower, 6.15 ln median PBM intensity, better of two orientations
- B13 — lower, 9.32 ln median PBM intensity, better of two orientations
- B14 — lower, 6.2 ln median PBM intensity, better of two orientations
- B15 — lower, 5.41 ln median PBM intensity, better of two orientations
- B16 — lower, 6.29 ln median PBM intensity, better of two orientations
- B17 — lower, 6.09 ln median PBM intensity, better of two orientations
- B18 — lower, 6.16 ln median PBM intensity, better of two orientations
- B2 — the same, 11.1 ln median PBM intensity, better of two orientations
- B3 — lower, 10.4 ln median PBM intensity, better of two orientations

molecular target: T2, SIP2 D1; assay: as above; conditions: tags: N-terminal GST (pGEX-4T-1), kept; label: surface-attached array probe

Point of comparison: B8, binding signal 6.79 ln median PBM intensity, better of two orientations. Against it:
- B5 — higher, 6.82 ln median PBM intensity, better of two orientations
- B6 — higher, 6.91 ln median PBM intensity, better of two orientations
- B7 — higher, 10.7 ln median PBM intensity, better of two orientations
- B9 — higher, 6.89 ln median PBM intensity, better of two orientations
- B10 — higher, 10.2 ln median PBM intensity, better of two orientations
- B11 — higher, 11.2 ln median PBM intensity, better of two orientations
- B12 — higher, 6.89 ln median PBM intensity, better of two orientations
- B13 — higher, 11.3 ln median PBM intensity, better of two orientations
- B14 — higher, 6.9 ln median PBM intensity, better of two orientations
- B15 — higher, 6.85 ln median PBM intensity, better of two orientations
- B16 — higher, 6.85 ln median PBM intensity, better of two orientations
- B17 — lower, 6.78 ln median PBM intensity, better of two orientations
- B18 — higher, 6.84 ln median PBM intensity, better of two orientations
